Assay results reported in article PMC5838249, “The Apicomplexa-specific glucosamine-6-phosphate N-acetyltransferase gene family encodes a key enzyme for glycoconjugate synthesis with potential as therapeutic target” (Scientific Reports, 2018).

Substrate: CC(=O)SCCNC(=O)CCNC(=O)[C@H](O)C(C)(C)COP(=O)(O)OP(=O)(O)OC[C@H]1O[C@@H](n2cnc3c(N)ncnc32)[C@H](O)[C@@H]1OP(=O)(O)O
Test: GNA1 kinetic assay, Michaelis-Menten
Type: biochemical, Cryptosporidium parvum
Conditions: co-substrate GlcN-6P

B1: CpGNA1 (Cryptosporidium parvum Iowa II) (protein)
chain: MISSFEVRKATIDDYFELRNLICDVTRCTETLSREQAEERFRYNTYHPYCLVDTENGRIVGYAGFYIIPHLGRKNDSRIEHVIISKEYRNRGLGRLLCKQIIEDAKNKFNCGRIDLTVESHIAKKLYSSLEFEKVNTEVMRNSFLDLTPKSD
  Km: 241.7 ± 35.3 µM
